Reference: patent US20050239169

Molecular target: T1, SELADIN-1
T1 chain: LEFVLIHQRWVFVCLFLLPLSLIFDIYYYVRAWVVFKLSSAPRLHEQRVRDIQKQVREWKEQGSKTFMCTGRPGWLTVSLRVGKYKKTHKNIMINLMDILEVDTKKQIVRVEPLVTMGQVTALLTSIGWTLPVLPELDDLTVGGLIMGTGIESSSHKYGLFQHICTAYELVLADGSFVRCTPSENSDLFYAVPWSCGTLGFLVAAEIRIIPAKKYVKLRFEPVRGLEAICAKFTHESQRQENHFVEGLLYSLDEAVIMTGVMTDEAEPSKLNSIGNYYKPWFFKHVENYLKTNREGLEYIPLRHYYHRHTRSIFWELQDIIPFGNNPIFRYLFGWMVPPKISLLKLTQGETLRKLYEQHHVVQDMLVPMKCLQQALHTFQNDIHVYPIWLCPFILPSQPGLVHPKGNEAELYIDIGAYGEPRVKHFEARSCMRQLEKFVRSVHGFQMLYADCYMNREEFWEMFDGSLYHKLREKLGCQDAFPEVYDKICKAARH

Protein	in vitro cleavage of SELADIN-1 (fragment sizes)
caspase 3 (protein) SGISLDNSYKMDYPEMGLCIIINNKNFHKSTGMTSRSGTDVDAANLRETFRNLKYEVRNKNDLTREEIVELMRDVSKEDHSKRSSFVCVLLSHGEEGIIFGTNGPVDLKKITNFFRGDRCRSLTGKPKLFIIQACRGTELDCGIETDSGVDDDMACHKIPVEADFLYAYSTAPGYYSWRNSKDGSWFIQSLCAMLKQYADKLEFMHILTRVNRKVATEFESFSFDATFHAKKQIPCIVSMLTKELYFYH	In vitro cleavage of SELADIN-1 by caspase 3 or 6 generated four different SELADIN-1 fragments of approximately 50, 40, 30 and 20 kDa, respectively
caspase 6 (protein) AFYKREMFDPAEKYKMDHRRRGIALIFNHERFFWHLTLPERRGTCADRDNLTRRFSDLGFEVKCFNDLKAEELLLKIHEVSTVSHADADCFVCVFLSHGEGNHIYAYDAKIEIQTLTGLFKGDKCHSLVGKPKIFIIQACRGNQHDVPVIPLDVVDNQTEKLDTNITEVDAASVYTLPAGADFLMCYSVAEGYYSHRETVNGSWYIQDLCEMLGKYGSSLEFTELLTLVNRKVSQRRVDFCKDPSAIGKKQVPCFASMLTKKLHFFPKSN	In vitro cleavage of SELADIN-1 by caspase 3 or 6 generated four different SELADIN-1 fragments of approximately 50, 40, 30 and 20 kDa, respectively
